Values joined by “and” are separate entries in the source; they are usually repeats but may differ in a detail not shown here. Equal values may be shown once. Read-outs that look alike come from different tables or passages of the source.
Experiments:
[1] = biological target: HLA-A*02:01 tetramer (human); assay: peptide exchange on HLA-A*02:01 tetramer, entering peptide 20 µM, 4 h; competitor: exiting peptide ILKEKK(DNP)VHGV; capture on anti HLA-ABC beads, anti-DNP FITC, flow cytometry
[2] = biological target: HLA-A*24:02 tetramer (human); assay: peptide exchange on HLA-A*24:02 tetramer, competing peptide 20 µM, 4 h; competitor: exiting peptide TFQRK(DNP)PAAF; capture on anti HLA-ABC beads, anti-DNP FITC, flow cytometry
[3] = biological target: T1, H-2 Kb tetramer (murine), P01901
T1 chain: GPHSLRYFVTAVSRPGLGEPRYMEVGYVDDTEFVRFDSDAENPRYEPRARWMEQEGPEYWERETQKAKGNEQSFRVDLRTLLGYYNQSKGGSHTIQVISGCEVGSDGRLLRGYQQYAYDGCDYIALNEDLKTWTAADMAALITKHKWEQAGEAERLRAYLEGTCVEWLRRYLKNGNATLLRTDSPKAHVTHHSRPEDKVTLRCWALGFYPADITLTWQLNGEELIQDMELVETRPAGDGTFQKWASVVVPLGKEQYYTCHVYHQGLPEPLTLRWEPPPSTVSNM

[4] = biological target: HLA-A*02:01 tetramer (human)
[5] = biological target: HLA-A*24:02 tetramer (human)
[6] = biological target: T1, H-2 Kb tetramer (murine), P01901; assay: peptide exchange on H-2 Kb PE tetramer, reference peptide 20 µM, glycyl-methionine, 4 h; bead sandwich immunoassay, flow cytometry
[7] = biological target: T1, H-2 Kb tetramer (murine), P01901; assay: peptide exchange on H-2 Kb PE tetramer, reference peptide 2 µM, glycyl-methionine, 4 h; competitor: exiting peptide TFQRK(DNP)PAAF; bead sandwich immunoassay, flow cytometry
[8] = biological target: T1, H-2 Kb tetramer (murine), P01901; assay: peptide exchange on H-2 Kb APC tetramer, reference peptide 2 µM, glycyl-methionine, 4 h; competitor: exiting peptide TFQRK(DNP)PAAF; bead sandwich immunoassay, flow cytometry
[9] = biological target: T1, H-2 Kb tetramer (murine), P01901; assay: peptide exchange on H-2 Kb APC tetramer, reference peptide 20 µM, glycyl-methionine, 4 h; competitor: exiting peptide TFQRK(DNP)PAAF; bead sandwich immunoassay, flow cytometry
[10] = biological target: T1, H-2 Kb tetramer (murine), P01901; assay: peptide exchange on H-2 Kb BV421 tetramer, reference peptide 2 µM, glycyl-methionine, 4 h; competitor: exiting peptide TFQRK(DNP)PAAF; bead sandwich immunoassay, flow cytometry
[11] = biological target: T1, H-2 Kb tetramer (murine), P01901; assay: peptide exchange on H-2 Kb BV421 tetramer, reference peptide 20 µM, glycyl-methionine, 4 h; competitor: exiting peptide TFQRK(DNP)PAAF; bead sandwich immunoassay, flow cytometry
[12] = remark: other sources report otherwise

AVLDGLLSL (modifications not checked) [… (SEQ ID NO: 34)]
% peptide exchange [1]: 90.7%

RIKDFLRNL (modifications not checked) [… (SEQ ID NO: 42)]
% peptide exchange [1]: 34%

AMAPRTLLL (modifications not checked) [… (SEQ ID NO: 18)]
% peptide exchange [2]: 81.6%

TFQRKPAAF (modifications not checked) [TFQRK(DNP)PAAF (SEQ ID NO: 16)]
% peptide exchange (loss of the exiting peptide without entering peptide) [3]: 16% and 13.3% and 30.4%

SLPPPGTRV (modifications not checked) [… (SEQ ID NO: 38)]
% peptide exchange [1, 12]: 86.6%

GLADQLIHL (modifications not checked) [… (SEQ ID NO: 23)]
% peptide exchange [4]: 91.4%

GYSLKLSKL (modifications not checked) [… (SEQ ID NO: 25)]
% peptide exchange [5]: 37.9%

IMQIMPYGC (modifications not checked) [… (SEQ ID NO: 41)]
% peptide exchange [1]: 59.9%

SYVPSAEQI (modifications not checked) [… (SEQ ID NO: 47)]
% peptide exchange [1]: 25%

IYSTVASSL (modifications not checked) [… (SEQ ID NO: 27)]
% peptide exchange [5]: 101%

FLYDDNQRV (modifications not checked) [… (SEQ ID NO: 33)]
% peptide exchange [1]: 91.2%

GLAVVTHGL (modifications not checked) [… (SEQ ID NO: 24)]
% peptide exchange [1]: 91%

YLLEFTPPV (modifications not checked) [HLA-A*02:01 Reference peptide, … (SEQ ID NO: 5)]
% peptide exchange [1]: 91.9%

WMHHNMDLI (modifications not checked) [… (SEQ ID NO: 37)]
% peptide exchange [1]: 89.2%

CSLWNGPHL (modifications not checked) [… (SEQ ID NO: 44)]
% peptide exchange [1]: 55.2%

ALALEVGEL (modifications not checked) [… (SEQ ID NO: 46)]
% peptide exchange [1]: 85.1%

CINGVCWTV (modifications not checked) [… (SEQ ID NO: 36)]
% peptide exchange [4]: 85.3%

EYILSLEEL (modifications not checked) [… (SEQ ID NO: 45)]
% peptide exchange [1]: 24.2%

RVRAYTYSK (modifications not checked) [… (SEQ ID NO: 30)]
% peptide exchange [5]: 10.3%

LTLGEFLKL (modifications not checked) [… (SEQ ID NO: 39)]
% peptide exchange [1]: 43.6%

FLSELTQQL (modifications not checked) [… (SEQ ID NO: 21)]
% peptide exchange [2]: 23.6%

SIYRYYGL (modifications not checked) [reference entering peptide (SIYRYYGL (SEQ ID NO: 59))]
% peptide exchange [6]: 100%
% peptide exchange [7]: 92.7%
% peptide exchange [8]: 97.1%
% peptide exchange [9]: 99.1%
% peptide exchange [10]: 90.6%
% peptide exchange [11]: 97.3%

IRLRPGGKK (modifications not checked) [… (SEQ ID NO: 49)]
% peptide exchange [4]: 25%

RYMRWTYRF (modifications not checked) [… (SEQ ID NO: 31)]
% peptide exchange [5]: 101%

WMHKVPASL (modifications not checked) [… (SEQ ID NO: 35)]
% peptide exchange [1]: 87.9%

LNMADKKET (modifications not checked) [… (SEQ ID NO: 28)]
% peptide exchange [5]: 10.3%

ALLAVGATK (modifications not checked) [… (SEQ ID NO: 43)]
% peptide exchange [1]: 25.7%

ATVQGQNLK (modifications not checked) [… (SEQ ID NO: 48)]
% peptide exchange [1]: 27.9%

IMQLMPFGC (modifications not checked) [… (SEQ ID NO: 40)]
% peptide exchange [1, 12]: 40.9%

From patent US12044680
